We go through 2 molecules from paper PMC4506582, “Plasmodium falciparum coronin organizes arrays of parallel actin filaments potentially guiding directional motility in invasive malaria parasites” (Malaria Journal, 2015).

Data set [1] deals with the molecule itself. As to the kind of experiment: SEC; Superdex 200 10/300, 50 mM MES pH 7.0, 100 mM NaCl, 2 mM DTT, 1 mM EDTA; single peak at ~13 mL, ~160 kDa. On the technique in general: In gel filtration, larger molecules generally elute earlier.
Data set [2] addresses rabbit skeletal muscle actin (filamentous, Mg-ATP-actin polymerised) (rabbit, UniProt P68135 1-377). As to the kind of experiment: co-sedimentation. As to conditions: both partners purified.

B1: His-PfAldolase (Plasmodium falciparum fructose 1,6 bisphosphate aldolase) (enzyme, UniProt Q7KQL9 1-369, looked up)
chain: MAHCTEYMNAPKKLPADVAEELATTAQKLVQAGKGILAADESTQTIKKRFDNIKLENTIENRASYRDLLFGTKGLGKFISGAILFEETLFQKNEAGVPMVNLLHNENIIPGIKVDKGLVNIPCTDEEKSTQGLDGLAERCKEYYKAGARFAKWRTVLVIDTAKGKPTDLSIHETAWGLARYASICQQNRLVPIVEPEILADGPHSIEVCAVVTQKVLSCVFKALQENGVLLEGALLKPNMVTAGYECTAKTTTQDVGFLTVRTLRRTVPPALPGVVFLSGGQSEEEASVNLNSINALGPHPWALTFSYGRALQASVLNTWQGKKENVAKAREVLLQRAEANSLATYGKYKGGAGGENAGASLYEKKYVY
notes: Detected by anti-His Western blot in the sedimentation assay; source: E. coli BL21 (DE3), purified (IMAC, cation exchange, SEC); not shown: His6, N-terminal, kept
For orientation: stoichiometry N means a count of units in the complex or per binding partner. For B1, the “stoichiometry N” value in data set [1] is approximately 4.

B2: PfCoronin 1-388 (N-terminal beta-propeller domain of Plasmodium falciparum coronin) (domain or fragment)
chain: MYNVPLIKNLYPDPSNNLYGDLRICSRATETCGIACSAGYIAVPWQVEGGGMIGVIRLENQVRNPPVIKLKSHTSPILDLSFNPCYSEILASCSEDMSIRIWEIRHEDENVNEVKDPLCILNGHKKKVNILSWNPMNYFILSSTSFDSSVNIWDIENEKKAFEINMPKKLSSLQWDIGGNLLSGTCQNKQIHIIDPRKQEICNSFLIHDGGKSTKCIWIDGFGGEDKCILTTGFSKNNMRELKLWSLKNTTSPLTTITLDNAASPLLPHYDESVGMIYLIGKGDGNCRYYQYSQGSIRKVDEYKSCLPFRSFGFLPKRMCDVYKCEIGRVYKNENNTDIRPISFYVPRKNSSIFQEDLYPPIIMRDPERSTNKWIDGINLDIKRVSIK
As a reminder, the Kd is the free concentration of one partner at which half of the binding sites on the other are occupied at equilibrium, for simple one-to-one binding. In data set [2], B2 returned a Kd of 956 nM.
